{"source": "patent US20240182580A1", "binders": {"B1": {"name": "anti-CD74 antibody without conjugation (anti-CD74 IgG of Examples 2 and 3) (antibody, V domains shown)", "VH": "QVQLVESGGGVVQPGRSLRLSCAASGFNFSDYGMHWVRQAPGKGLEWVAVIWYDGSISYYADSVKGRFTISRDNSKNTLYLQMNSLRAEDTAVYYCARGGTVEHGAVYGTDVWGQGTTVTVSS", "VL": "DIQMTQSPSSVSASVGDRVTITCRASQGIGSWLAWYQQKPGKAPKLLIYAADRLQSGVPSRFSGSGSGTDFTLTISSLQPEDFATYYCQQYHTYPLTFGGGTKVEIK"}}, "key": {"[1]": {"target": "CD74 on human tumour cell lines (human) (UniProt P04233)", "test": "flow cytometry on JVM-13 (CLL) cells, one-site specific binding fit"}, "[2]": {"target": "CD74 on human tumour cell lines (human) (UniProt P04233)", "test": "flow cytometry on RPMI-8226 (MM) cells, one-site specific binding fit"}, "[3]": {"target": "CD74 on human tumour cell lines (human) (UniProt P04233)", "test": "flow cytometry on JVM-13 (CLL) cells, geometric MFI, one-site specific binding fit"}, "[4]": {"target": "CD74 on human tumour cell lines (human) (UniProt P04233)", "test": "flow cytometry on SU-DHL-6 (NHL) cells, one-site specific binding fit"}, "[5]": {"target": "CD74 on human tumour cell lines (human) (UniProt P04233)", "test": "flow cytometry on ARD (MM) cells, geometric MFI, one-site specific binding fit"}, "[6]": {"target": "CD74 on human tumour cell lines (human) (UniProt P04233)", "test": "flow cytometry on SU-DHL-6 (NHL) cells; Table 3 repeats Table 2"}, "[7]": {"target": "CD74 on human tumour cell lines (human) (UniProt P04233)", "test": "flow cytometry on RPMI-6666 (HL) cells; Table 3 repeats Table 2"}, "[8]": {"target": "CD74 on human tumour cell lines (human) (UniProt P04233)", "test": "flow cytometry on BDCM (AML) cells; Table 3 repeats Table 2"}, "[9]": {"target": "CD74 on human tumour cell lines (human) (UniProt P04233)", "test": "flow cytometry on RPMI-6666 (HL) cells, geometric MFI, one-site specific binding fit"}, "[10]": {"target": "CD74 on human tumour cell lines (human) (UniProt P04233)", "test": "flow cytometry on SUP-B15 (ALL) cells, geometric MFI, one-site specific binding fit"}, "[11]": {"target": "CD74 on human tumour cell lines (human) (UniProt P04233)", "test": "flow cytometry on ARP-1 (MM) cells; Table 3 repeats Table 2"}, "[12]": {"target": "CD74 on human tumour cell lines (human) (UniProt P04233)", "test": "flow cytometry on BDCM (AML) cells, geometric MFI, one-site specific binding fit"}, "[13]": {"target": "CD74 on human tumour cell lines (human) (UniProt P04233)", "test": "flow cytometry on RPMI-6666 (HL) cells, one-site specific binding fit"}, "[14]": {"target": "CD74 on human tumour cell lines (human) (UniProt P04233)", "test": "flow cytometry on ARD (MM) cells; Table 3 repeats Table 2"}, "[15]": {"target": "CD74 on human tumour cell lines (human) (UniProt P04233)", "test": "flow cytometry on SUP-B15 (ALL) cells; Table 3 repeats Table 2", "design": "Bmax: unit not given here"}, "[16]": {"target": "CD74 on human tumour cell lines (human) (UniProt P04233)", "test": "flow cytometry on ARP-1 (MM) cells, geometric MFI, one-site specific binding fit"}, "[17]": {"target": "CD74 on human tumour cell lines (human) (UniProt P04233)", "test": "flow cytometry on SUP-B15 (ALL) cells, one-site specific binding fit"}, "[18]": {"target": "CD74 on human tumour cell lines (human) (UniProt P04233)", "test": "flow cytometry on JVM-13 (CLL) cells; Table 3 repeats Table 2", "design": "Bmax: unit not given here"}, "[19]": {"target": "CD74 on human tumour cell lines (human) (UniProt P04233)", "test": "flow cytometry on RPMI-8226 (MM) cells, geometric MFI, one-site specific binding fit"}, "[20]": {"target": "CD74 on human tumour cell lines (human) (UniProt P04233)", "test": "flow cytometry on SU-DHL-6 (NHL) cells, geometric MFI, one-site specific binding fit"}, "[21]": {"target": "CD74 on human tumour cell lines (human) (UniProt P04233)", "test": "flow cytometry on ARD (MM) cells, one-site specific binding fit"}, "[22]": {"target": "CD74 on human tumour cell lines (human) (UniProt P04233)", "test": "flow cytometry on RPMI-8226 (MM) cells; Table 3 repeats Table 2"}, "[23]": {"target": "CD74 on human tumour cell lines (human) (UniProt P04233)", "test": "flow cytometry on BDCM (AML) cells, one-site specific binding fit"}}, "data": [{"binder": "B1", "values": [{"measurement": "Kd", "setting": "[1]", "value": 2.5, "unit": "nM"}, {"measurement": "Kd", "setting": "[2]", "value": 3.6, "unit": "nM"}, {"measurement": "Bmax", "setting": "[3]", "value": 447}, {"measurement": "Kd", "setting": "[4]", "value": 2, "unit": "nM"}, {"measurement": "Bmax", "setting": "[5]", "value": 190}, {"measurement": "Bmax", "setting": "[6]", "value": 1560}, {"measurement": "Kd", "setting": "[6]", "value": 2, "unit": "nM"}, {"measurement": "Bmax", "setting": "[7]", "value": 3880}, {"measurement": "Kd", "setting": "[7]", "value": 2.3, "unit": "nM"}, {"measurement": "Bmax", "setting": "[8]", "value": 3060}, {"measurement": "Kd", "setting": "[8]", "value": 4.5, "unit": "nM"}, {"measurement": "Bmax", "setting": "[9]", "value": 3880}, {"measurement": "Bmax", "setting": "[10]", "value": 680}, {"measurement": "Bmax", "setting": "[11]", "value": 341}, {"measurement": "Bmax", "setting": "[12]", "value": 3060}, {"measurement": "Kd", "setting": "[13]", "value": 2.3, "unit": "nM"}, {"measurement": "Bmax", "setting": "[14]", "value": 190}, {"measurement": "Kd", "setting": "[14]", "value": 2.6, "unit": "nM"}, {"measurement": "Bmax", "setting": "[15]", "value": 680}, {"measurement": "Kd", "setting": "[15]", "value": 3.5, "unit": "nM"}, {"measurement": "Bmax", "setting": "[16]", "value": 341}, {"measurement": "Kd", "setting": "[17]", "value": 3.5, "unit": "nM"}, {"measurement": "Bmax", "setting": "[18]", "value": 447}, {"measurement": "Kd", "setting": "[18]", "value": 2.5, "unit": "nM"}, {"measurement": "Bmax", "setting": "[19]", "value": 119}, {"measurement": "Bmax", "setting": "[20]", "value": 1560}, {"measurement": "Kd", "setting": "[21]", "value": 2.6, "unit": "nM"}, {"measurement": "Bmax", "setting": "[22]", "value": 119}, {"measurement": "Kd", "setting": "[22]", "value": 3.6, "unit": "nM"}, {"measurement": "Kd", "setting": "[23]", "value": 4.5, "unit": "nM"}]}]}
